Common to all, as to assay: flow cytometry on cells; biotinylated ligand at various concentrations, 30 min at 4 °C in PBS + 0.1% BSA, on Drosophila S2 cells displaying the partner (C-terminal FLAG, rat Neurexin-1 transmembrane helix); Cy5-streptavidin; gated on anti-FLAG positive cells; MFI fit to a single-site model; apparent KD
Holding throughout (details): one partner purified

For assay [1], the target named is T1, hRobo3 FN1-3 N600A/T601A, biotinylated (human, UniProt Q96MS0 549-870, N600A | T601A, biotin on the Avi-tag (BirA)).
T1 construct: human Robo3, FN domains 1-3, P549-L870; source: High Five cells (baculovirus), purified, biotinylated with BirA (general methods)
T1 sequence (looked up): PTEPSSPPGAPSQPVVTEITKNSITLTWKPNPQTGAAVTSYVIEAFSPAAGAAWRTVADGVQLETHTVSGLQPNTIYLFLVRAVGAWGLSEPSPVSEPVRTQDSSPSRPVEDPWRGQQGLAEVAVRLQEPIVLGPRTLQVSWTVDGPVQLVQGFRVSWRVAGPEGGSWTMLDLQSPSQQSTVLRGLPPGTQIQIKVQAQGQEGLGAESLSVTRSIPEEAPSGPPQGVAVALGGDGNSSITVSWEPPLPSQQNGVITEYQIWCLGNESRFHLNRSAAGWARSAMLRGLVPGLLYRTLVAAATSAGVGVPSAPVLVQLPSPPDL

Assay [2] deals with T2, hRobo3 FN1-3 I624A/L626A, biotinylated (human, UniProt Q96MS0 549-870, I624A | L626A, biotin on the Avi-tag (BirA)).
T2 construct: human Robo3, FN domains 1-3, P549-L870; source: High Five cells (baculovirus), purified, biotinylated with BirA (general methods)
T2 sequence (looked up): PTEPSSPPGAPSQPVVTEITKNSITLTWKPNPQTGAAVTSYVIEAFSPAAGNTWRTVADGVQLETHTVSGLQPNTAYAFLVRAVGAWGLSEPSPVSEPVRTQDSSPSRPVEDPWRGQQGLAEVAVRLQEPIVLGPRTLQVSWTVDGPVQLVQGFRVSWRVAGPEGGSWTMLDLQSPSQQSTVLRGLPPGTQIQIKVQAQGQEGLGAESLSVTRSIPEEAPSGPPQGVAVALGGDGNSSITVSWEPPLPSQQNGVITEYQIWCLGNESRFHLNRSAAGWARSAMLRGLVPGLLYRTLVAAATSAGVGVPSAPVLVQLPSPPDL

The target in assay [3] is T3, hRobo3 FN1-3 T604A, biotinylated (human, UniProt Q96MS0 549-870, T604A, biotin on the Avi-tag (BirA)).
T3 construct: human Robo3, FN domains 1-3, P549-L870; source: High Five cells (baculovirus), purified, biotinylated with BirA (general methods)
T3 sequence (looked up): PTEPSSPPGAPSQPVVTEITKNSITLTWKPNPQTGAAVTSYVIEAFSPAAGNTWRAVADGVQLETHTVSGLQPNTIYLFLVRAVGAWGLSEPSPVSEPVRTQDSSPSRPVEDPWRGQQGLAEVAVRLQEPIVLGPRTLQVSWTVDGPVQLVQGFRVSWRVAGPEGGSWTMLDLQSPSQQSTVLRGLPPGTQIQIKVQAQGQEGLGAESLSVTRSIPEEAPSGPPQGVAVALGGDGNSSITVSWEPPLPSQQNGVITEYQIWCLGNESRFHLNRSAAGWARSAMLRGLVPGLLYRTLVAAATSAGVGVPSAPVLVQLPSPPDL

The target of assay [4] is T4, hRobo3 FN1-3 E639A, biotinylated (human, UniProt Q96MS0 549-870, E639A, biotin on the Avi-tag (BirA)).
T4 construct: human Robo3, FN domains 1-3, P549-L870; source: High Five cells (baculovirus), purified, biotinylated with BirA (general methods)
T4 sequence (looked up): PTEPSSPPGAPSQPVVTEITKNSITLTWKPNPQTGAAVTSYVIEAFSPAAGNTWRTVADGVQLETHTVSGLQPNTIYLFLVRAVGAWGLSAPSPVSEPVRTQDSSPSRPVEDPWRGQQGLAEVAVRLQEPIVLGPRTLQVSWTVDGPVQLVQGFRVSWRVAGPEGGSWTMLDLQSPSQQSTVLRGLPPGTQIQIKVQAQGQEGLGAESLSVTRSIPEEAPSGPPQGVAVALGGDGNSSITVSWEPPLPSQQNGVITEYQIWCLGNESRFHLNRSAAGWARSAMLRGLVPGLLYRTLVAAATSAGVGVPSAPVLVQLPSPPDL

Assay [5] concerns the target T5, hRobo3 FN1-3, biotinylated (wild type) (human, UniProt Q96MS0 549-870, biotin on the Avi-tag (BirA)).
T5 construct: human Robo3, FN domains 1-3, P549-L870; also called WT hRobo3 FN; Robo3FN1-3 WT; source: High Five cells (baculovirus), purified (Ni-NTA, SEC), biotinylated with BirA
T5 sequence (looked up): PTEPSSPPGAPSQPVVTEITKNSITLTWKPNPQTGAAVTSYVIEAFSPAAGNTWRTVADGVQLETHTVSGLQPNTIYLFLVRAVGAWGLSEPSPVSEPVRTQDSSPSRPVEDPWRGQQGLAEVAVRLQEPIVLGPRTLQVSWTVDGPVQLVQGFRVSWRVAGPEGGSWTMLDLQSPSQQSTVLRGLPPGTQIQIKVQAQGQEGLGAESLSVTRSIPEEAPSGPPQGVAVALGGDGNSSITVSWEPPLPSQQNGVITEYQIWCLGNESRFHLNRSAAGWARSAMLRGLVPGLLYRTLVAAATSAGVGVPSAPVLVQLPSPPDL

This note sets out measurements from paper PMC7083938, “NELL2-Robo3 complex structure reveals mechanisms of receptor activation for axon guidance” (Nature Communications, 2020).

B1: hNELL2 EGF1-6 displayed on S2 cells (domain or fragment)
chain: not shown
notes: human NELL2, EGF domains 1-6, G397-T637; also called NELL2EGF1-6 WT (Actin 5C, C-terminal FLAG); FLAG-tagged NELL2 EGF1-6; source: Drosophila S2 cells, transiently transfected, on the cell surface; not shown: FLAG, C-terminal, kept; transmembrane helix of rat Neurexin-1, C-terminal, kept
In the case of B1, the Kd in assay [1] was 2900 nM; in assay [2], 6500 nM; in assay [3], 7900 nM; in assay [4] it was 1100 nM; in assay [5], 890 nM.
